Data on three substances can be found in patent US20150374845A1.

Assay in all cases: cell-based or functional assay
In assay [1] the target is hypoglycosylated dystroglycan of vector-infected MDA-MB-231 human breast cancer cells and LN18 human glioma cells (human) (UniProt Q14118).
Assay [2] has as its target glycosylated dystroglycan of LARGE-expressing MDA-MB-231 human breast cancer cells and LN18 human glioma cells (human) (UniProt Q14118).
Assay [3] deals with human dystroglycan (WT DG) expressed by retrovirus in DG-knockout MEpG mammary epithelial cells (human) (UniProt Q14118).
Assay [4] has as its target wild type human beta1 integrin re-expressed by retrovirus in beta1 integrin-knockout E3D1cre19 MECs (human) (UniProt P05556).
Assay [5] deals with beta1 integrin on mammary epithelial cells (MECs) (UniProt P09055).
Chain of beta1 integrin on mammary epithelial cells (MECs) (P09055 21-798 limits assumed): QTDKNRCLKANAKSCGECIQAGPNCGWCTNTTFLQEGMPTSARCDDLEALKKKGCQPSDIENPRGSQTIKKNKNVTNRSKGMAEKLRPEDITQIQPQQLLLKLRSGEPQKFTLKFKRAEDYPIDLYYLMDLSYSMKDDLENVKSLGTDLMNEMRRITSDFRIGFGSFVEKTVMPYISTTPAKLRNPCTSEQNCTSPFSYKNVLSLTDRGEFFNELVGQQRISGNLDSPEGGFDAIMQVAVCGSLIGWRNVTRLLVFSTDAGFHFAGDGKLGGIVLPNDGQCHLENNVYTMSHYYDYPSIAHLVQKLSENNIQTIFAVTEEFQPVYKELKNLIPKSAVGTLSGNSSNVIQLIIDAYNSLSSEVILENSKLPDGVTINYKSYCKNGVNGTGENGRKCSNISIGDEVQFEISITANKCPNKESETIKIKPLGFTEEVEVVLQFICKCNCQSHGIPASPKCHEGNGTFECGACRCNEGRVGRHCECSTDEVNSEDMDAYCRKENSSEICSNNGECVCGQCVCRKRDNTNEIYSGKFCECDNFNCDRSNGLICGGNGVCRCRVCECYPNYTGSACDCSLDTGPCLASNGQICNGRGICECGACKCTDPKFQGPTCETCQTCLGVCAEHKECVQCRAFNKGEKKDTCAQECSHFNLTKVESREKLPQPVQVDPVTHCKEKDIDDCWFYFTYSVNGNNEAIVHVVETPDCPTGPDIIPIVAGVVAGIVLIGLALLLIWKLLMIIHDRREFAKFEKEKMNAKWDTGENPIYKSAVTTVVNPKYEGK

Chain of wild type human beta1 integrin re-expressed by retrovirus in beta1 integrin-knockout E3D1cre19 MECs (human) (P05556 21-798): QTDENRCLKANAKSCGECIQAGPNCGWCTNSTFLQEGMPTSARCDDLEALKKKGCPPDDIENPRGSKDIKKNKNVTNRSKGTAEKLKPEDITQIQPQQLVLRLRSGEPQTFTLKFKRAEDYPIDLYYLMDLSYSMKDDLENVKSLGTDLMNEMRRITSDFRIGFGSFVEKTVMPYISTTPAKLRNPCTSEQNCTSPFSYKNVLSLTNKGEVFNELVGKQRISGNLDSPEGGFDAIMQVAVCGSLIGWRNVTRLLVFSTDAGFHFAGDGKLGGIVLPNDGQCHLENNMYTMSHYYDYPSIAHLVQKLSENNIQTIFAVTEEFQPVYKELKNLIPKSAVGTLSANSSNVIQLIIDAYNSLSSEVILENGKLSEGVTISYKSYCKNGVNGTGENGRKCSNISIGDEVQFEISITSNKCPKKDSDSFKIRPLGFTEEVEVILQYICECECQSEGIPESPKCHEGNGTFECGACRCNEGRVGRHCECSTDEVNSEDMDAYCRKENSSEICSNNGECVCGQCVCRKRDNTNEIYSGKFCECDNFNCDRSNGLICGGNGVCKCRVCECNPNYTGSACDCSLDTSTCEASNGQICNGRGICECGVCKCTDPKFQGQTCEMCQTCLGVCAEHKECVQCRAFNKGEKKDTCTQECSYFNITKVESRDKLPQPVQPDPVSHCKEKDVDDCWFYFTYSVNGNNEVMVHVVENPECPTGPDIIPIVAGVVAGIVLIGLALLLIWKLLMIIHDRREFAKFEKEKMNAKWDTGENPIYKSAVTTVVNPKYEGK

For “rhodamine-labeled laminin-111 (from UniProt P19137 25-3083; P02469 22-1786; P02468 34-1607) (ligand)”, in assay [1], the MFI of internalized Rhod-Ln, flow cytometry, LN18 cells was 0.145 MFI and the MFI of internalized Rhod-Ln, flow cytometry, MDA-MB-231 cells was determined as 0.1 MFI.
In the case of “rhodamine-labeled laminin-111, P19137 25-3083; P02469 22-1786; P02468 34-1607”, in assay [2], the MFI of internalized Rhod-Ln, flow cytometry, LN18 cells is 1.49 MFI; the MFI of internalized Rhod-Ln, flow cytometry, MDA-MB-231 cells was 6.82 MFI; the increase in MFI of internalized laminin, LARGE-expressing against vector LN18 cells turned out to be 10 fold; the increase in MFI of internalized laminin, LARGE-expressing against vector MDA-MB-231 cells turned out to be 68 fold. For the same substance, in assay [3], the compiled MFI of internalized Rhod-Ln, DG-expressing against DG-lacking MEpG cells amounted to 4 fold; the compiled mean fluorescence intensity (MFI) of internalized Rhod-Ln, flow cytometry, MEpG cells stood at 18 MFI; the laminin internalization, compiled mean fluorescence intensity flow cytometry data was found to be 380 % more. In assay [4], this substance displayed an MFI of internalized laminin, flow cytometry, E3D1cre19 cells of 26.8 MFI and a change in laminin internalization on re-expression of WT β1 integrin in β1 int-/- cells of 20 % increase.
In assay [5], Hat2/5 antibody returned a Ln internalization, cellular fluorescence intensity of Rhod-Ln by flow cytometry, normalized to Ln alone control of 36 % decrease.
